Test results as given in publication PMC4484435 (2015).

Target: transforming growth factor beta 1 (UniProt P01137 279-390)
Assay: SPR

Chain of transforming growth factor beta 1 (P01137 279-390): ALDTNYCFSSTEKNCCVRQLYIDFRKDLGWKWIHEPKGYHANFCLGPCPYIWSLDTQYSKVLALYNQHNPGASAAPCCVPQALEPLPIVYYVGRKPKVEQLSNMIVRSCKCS

- koff: 0.0589 s⁻¹
B1: Leucine-rich α2-glycoprotein (natural protein)
chain: LKECLILQSAEGSTVSCHGPTEFPSSLPADTVHLSVEFSNLTQLPAAALQGCPGLRELHLSSNRLQALSPELLAPVPRLRALDLTRNALRSLPPGLFSTSANLSTLVLRENQLREVSAQWLQGLDALGHLDLAENQLSSLPSGLLASLGALHTLDLGYNLLESLPEGLLRGPRRLQRLHLEGNRLQRLEDSLLAPQPFLRVLFLNDNQLVGVATGSFQGLQHLDMLDLSNNSLSSTPPGLWAFLGRPTRDMQDGFDISHNPWICDKNLADLCRWLVANRNKMFSQNDTRCAGPEAMKGQRLLDVAELGSL
